In one test the target is T1, Glycine max agglutinin (Glycine max, UniProt P05046 33-285, biotinylated).
T1 construct: Lectin; also called SBA
In words: biotinylated lectin blot of shed proteins.

In test [1] the target is T2, Ulex europeus agglutinin-1 (Ulex europeus, UniProt P22972 1-243, biotinylated).
T2 construct: Lectin; also called UEA-1
T2 sequence: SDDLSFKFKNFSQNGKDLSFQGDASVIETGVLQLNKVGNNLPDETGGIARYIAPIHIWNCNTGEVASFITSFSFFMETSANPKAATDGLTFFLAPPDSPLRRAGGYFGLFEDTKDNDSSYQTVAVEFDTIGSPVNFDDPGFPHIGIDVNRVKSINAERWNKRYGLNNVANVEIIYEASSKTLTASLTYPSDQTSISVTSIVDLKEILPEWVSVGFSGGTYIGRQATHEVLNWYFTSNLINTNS
In words: biotinylated lectin blot of shed proteins.
From the text: (§1) In order to determine the nature of the carbohydrates present, SP were probed with a panel of biotinylated lectins of varying sugar specificity (Table 1).

T1 sequence (P05046 33-285 limits assumed): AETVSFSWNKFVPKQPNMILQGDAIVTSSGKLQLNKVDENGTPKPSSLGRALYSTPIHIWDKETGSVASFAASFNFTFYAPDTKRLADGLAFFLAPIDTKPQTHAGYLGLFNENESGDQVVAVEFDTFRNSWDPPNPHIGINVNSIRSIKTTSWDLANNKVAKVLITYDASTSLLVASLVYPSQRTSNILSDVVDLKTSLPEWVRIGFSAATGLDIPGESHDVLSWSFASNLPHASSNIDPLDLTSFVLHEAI
From the text for Glycine max agglutinin: as §1

B1: gp40 (native 40 kDa glycoprotein of Cryptosporidium parvum) (other)
chain: DVPVEGSSSSSSSSSSSSSSSSSSSTSTVAPANKARTGEDAEGSQDSSGTEASGSQGSEEEGSEDDGQTSAASQPTTPAQSEGATTETIEATPKEECGTSFVMWFGEGTPAATLKCGAYTIVYAPIKDQTDPAPRYISGEVTSVTFEKSDNTVKIKVNGQDFSTLSANSSSPTENGGSAGQASSRSRRSLSE
modifications: native glycoprotein: O-linked glycans with terminal α-linked GalNAc on Ser/Thr
notes: Native protein from oocysts, sporozoites, shed proteins or HPA-purified lysate; also called 40,000 Mr peptide; 40 kDa band
For the molecule B1, the binding result (in the test with Glycine max agglutinin; in test [1]) was “binds” each time.

Values taken from patent publication US6657045 (NEW ENGLAND MEDICAL CENTER HOSPITALS, dated 2003).
